Details: phosphorylation at S405

Row | Substance | other | degradation_or_half_life | expression_or_secretion
1 | YAP: S405D phosphomimetic | decreases |  | 
2 | YAP: S405A | increases | decreases | 
3 | YAP: ponatinib (MAP3K3 inhibitor) |  |  | decreases
